The target of the data set is M. tuberculosis RNAP core;SigB;RbpA (Mycobacterium …, UniProt P9WGZ1;P9WGY9;P9WGY7;P9WGY5;P9WGI5;P9WHJ5 1-347;1-1178;1-1316;1-110;1-323;1-111, ||). The data set can be described thus: EMSA. (In EMSA bound probe runs differently from free probe, usually more slowly.)

B1: galP1AA (dsDNA)
DNA 1: GTTTATTCCATGTCACACTTTTCGCATCTTTTCGTTGCTATAATTATTTCATACCAAAAGCCTAATGGAGCG
DNA 2: CGCTCCATTAGGCTTTTGGTATGAAATAATTATAGCAACGAAAAGATGCGAAAAGTGTGACATGGAATAAAC
For B1, the binding result was “binds”.

The values above are taken from PMC4176334.
